Measured values published in patent CN107043423A (JIANGSU HENGRUI MEDICINE CO; SHANGHAI HENGRUI …, dated 2017).

Assays:
带His标签的人凝血酶 [1] = biological target: T1, 带His标签的人凝血酶 (human, UniProt P00734 328-622); assay: ELISA, biotinylated His-tagged human thrombin on streptavidin plate
带His标签的人凝血酶 [2] = biological target: T1, 带His标签的人凝血酶; assay: BIAcore SPR, antibody captured by anti-human capture antibody on CM5 chip, His-tagged thrombin in flow
带His标签的人凝血酶原 = biological target: T2, 带His标签的人凝血酶原 (human, UniProt P00734 44-622); assay: BIAcore SPR, antibody captured by anti-human capture antibody on CM5 chip, His-tagged prothrombin in flow
T2 construct: Zymogen precursor of thrombin, expressed in HEK293E; also called h-prothrombin-his; 人Pro凝血酶

Binder	EC50 (带His标签的人凝血酶 [1])	Kd (带His标签的人凝血酶 [2])	Kd (带His标签的人凝血酶原)
人源化抗体H1512-8 (antibody, human IgG4 S228P, kappa, V domains shown, Humanized antibody) VH: EVQLVESGGGLVQPGGSLRLSCAASGFTVSNYDMSWVRQAPGKGLEWVSMIETDGSIFHASWVNGRFTISRDNSKNTLYLQMNSLRAEDTAVYYCARGSNDYDAYGYPYFTLWGQGTLVTVSS VL: ELVLTQSSSASASLGSSVKLTCTLSSAHETYTIDWYQQQPGKAPRYLMELKSDGSYNKGAGVPDRFSGSSSGADRYLTISNLQLEDEATYHCGADFSDGYVFGGGTKVEIKR	19.3 nM		
人源化抗体H1512-1 (antibody, human IgG4 S228P, kappa, V domains shown, Humanized antibody) VH: EVQLVESGGGLVQPGGSLRLSCAASGFTVSNYDMSWVRQAPGKGLEWVSMIETDGSIFHASWVNGRFTISRDNSKNTLYLQMNSLRAEDTAVYYCARGSNDYDAYGYPYFTLWGQGTLVTVSS VL: QPVLTQSSSASASLGSSVKLTCTLSSAHETYTIDWHQQQPGKAPRYLMKLKSDGSYNKGAGVPDRFSGSSSGADRYLTISNLQLEDEADYYCGADFSDGYVFGGGTKVEIKR	43.4 nM		
人源化抗体H1512-12 (antibody, human IgG4 S228P, kappa, V domains shown, Humanized antibody; also called 抗凝血酶抗体H1512-12) VH: EVQLVESGGGLVQPGGSLRLSCAASGFTVSNYDMSWVRQAPGKGLEWIGMIETDGSIFHASWVNGRFTISKDNSKNTVYLQMNSLRAEDTAVYFCVRGSNDYDAYGYPYFTLWGQGTLVTVSS VL: QLVLTQSSSASASLGSSVKLTCTLSSAHETYTIDWYQQQPGKAPRYLMELKSDGSYNKGAGVPDRFSGSSSGADRYLTISNLQLEDEATYHCGADFSDGYVFGGGTKVEIKR	0.16 nM	2.79 nM	26.4 nM
